Assay [1] addresses T1, FZD4 cysteine-rich domain (CRD), MYC-tagged and GPI-anchored on CHO cells (human, UniProt Q9ULV1 42-167, GPI anchor).
T1 construct: also called FZD4 CRD; CHO-myc-FZDGPI; not shown: MYC tag and GPI anchor signal
T1 sequence: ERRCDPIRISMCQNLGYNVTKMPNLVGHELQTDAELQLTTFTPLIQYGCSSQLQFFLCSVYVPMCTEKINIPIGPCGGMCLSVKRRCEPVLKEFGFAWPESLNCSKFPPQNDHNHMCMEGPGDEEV
Description: flow cytometry, CHO-CRD cells. (In flow cytometry, cells or beads pass a laser one at a time.)

In assay [2] the target is T2, FZD6 cysteine-rich domain (CRD), MYC-tagged and GPI-anchored on CHO cells (human, UniProt O60353 20-146, GPI anchor).
T2 construct: also called FZD6 CRD; CHO-myc-FZDGPI; not shown: MYC tag and GPI anchor signal
T2 sequence: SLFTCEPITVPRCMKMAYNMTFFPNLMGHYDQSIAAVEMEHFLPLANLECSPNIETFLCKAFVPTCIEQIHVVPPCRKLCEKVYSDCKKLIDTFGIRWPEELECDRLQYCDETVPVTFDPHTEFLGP
Description: flow cytometry, CHO-CRD cells.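 Further: flow cytometry of Fab binding to CHO cells overexpressing a Frizzled CRD, with binding defined as median fluorescence over twice that of CHO cells lacking any Frizzled CRD.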

The target in assay [3] is T3, FZD10 cysteine-rich domain (CRD), MYC-tagged and GPI-anchored on CHO cells (human, UniProt Q9ULW2 30-156, GPI anchor).
T3 construct: also called FZD10 CRD; CHO-myc-FZDGPI; not shown: MYC tag and GPI anchor signal
T3 sequence: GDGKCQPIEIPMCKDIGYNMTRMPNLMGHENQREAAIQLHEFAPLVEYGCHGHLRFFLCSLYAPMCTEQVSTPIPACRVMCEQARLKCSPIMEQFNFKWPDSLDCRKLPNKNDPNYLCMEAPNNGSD
Description: flow cytometry, CHO-CRD cells.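 Further: flow cytometry of Fab binding to CHO cells overexpressing a Frizzled CRD, with binding defined as median fluorescence over twice that of CHO cells lacking any Frizzled CRD.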

For assay [4], the target named is T4, FZD9 cysteine-rich domain (CRD), MYC-tagged and GPI-anchored on CHO cells (human, UniProt O00144 35-161, GPI anchor).
T4 construct: also called FZD9 CRD; CHO-myc-FZDGPI; not shown: MYC tag and GPI anchor signal
T4 sequence: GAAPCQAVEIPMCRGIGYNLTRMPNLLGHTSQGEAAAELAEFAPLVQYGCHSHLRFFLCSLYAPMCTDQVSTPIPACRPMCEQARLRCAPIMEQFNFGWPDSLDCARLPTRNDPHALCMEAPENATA
Description: flow cytometry, CHO-CRD cells.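 Further: flow cytometry of Fab binding to CHO cells overexpressing a Frizzled CRD, with binding defined as median fluorescence over twice that of CHO cells lacking any Frizzled CRD.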

Assay [5] deals with T5, FZD5 cysteine-rich domain (CRD), MYC-tagged and GPI-anchored on CHO cells (human, UniProt Q13467 29-156, GPI anchor).
T5 construct: also called FZD5 CRD; CHO-myc-FZDGPI; not shown: MYC tag and GPI anchor signal
T5 sequence: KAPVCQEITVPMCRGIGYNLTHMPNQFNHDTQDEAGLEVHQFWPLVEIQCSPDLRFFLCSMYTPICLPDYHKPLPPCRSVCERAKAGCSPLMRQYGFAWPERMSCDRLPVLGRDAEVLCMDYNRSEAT
Description: flow cytometry, CHO-CRD cells.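 Further: flow cytometry of Fab binding to CHO cells overexpressing a Frizzled CRD, with binding defined as median fluorescence over twice that of CHO cells lacking any Frizzled CRD.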

Assay [6] has as its target T6, FZD3 cysteine-rich domain (CRD), MYC-tagged and GPI-anchored on CHO cells (human, UniProt Q9NPG1 24-150, GPI anchor).
T6 construct: domain: cysteine-rich domain (CRD); also called FZD3 CRD; CHO-myc-FZDGPI; not shown: MYC tag and GPI anchor signal
T6 sequence (looked up): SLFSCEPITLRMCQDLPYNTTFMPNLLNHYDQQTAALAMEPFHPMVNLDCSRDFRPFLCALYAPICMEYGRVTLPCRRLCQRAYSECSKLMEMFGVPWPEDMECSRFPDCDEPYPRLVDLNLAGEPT
Description: flow cytometry, CHO-CRD cells.

For assay [7], the target named is T1, FZD4 cysteine-rich domain (CRD), …. Put plainly: immunofluorescence, CHO-CRD cells.
Assay [8] concerns the target T2, FZD6 cysteine-rich domain (CRD), …. Put plainly: immunofluorescence, CHO-CRD cells.
For assay [9], the target named is T3, FZD10 cysteine-rich domain (CRD), …. Put plainly: immunofluorescence, CHO-CRD cells.
Assay [10] addresses T4, FZD9 cysteine-rich domain (CRD), …. Description: immunofluorescence, CHO-CRD cells.
For assay [11], the target named is T6, FZD3 cysteine-rich domain (CRD), …. Put plainly: immunofluorescence, CHO-CRD cells.
For assay [12], the target named is T7, FZD8 cysteine-rich domain (CRD), MYC-tagged and GPI-anchored on CHO cells (human, UniProt Q498S8 31-155 (rat entry), GPI anchor).
T7 construct: also called FZD8 CRD; CHO-myc-FZDGPI; not shown: MYC tag and GPI anchor signal
T7 sequence: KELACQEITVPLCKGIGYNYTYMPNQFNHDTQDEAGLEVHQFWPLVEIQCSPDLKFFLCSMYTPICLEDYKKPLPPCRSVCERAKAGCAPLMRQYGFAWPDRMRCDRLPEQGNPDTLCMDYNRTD
Put plainly: flow cytometry, CHO-CRD cells.

Assay [13] concerns the target FZD1 cysteine-rich domain (CRD), MYC-tagged and GPI-anchored on CHO cells (human). Description: flow cytometry, CHO-CRD cells.
Description: (§1) Binding was measured via flow cytometry analysis of CHO cells overexpressing CRD of FZD1, FZD2, FZD3, FZD4, FZD5, FZD6, FZD7, FZD8, FZD9 or FZD10. Median fluorescence values are shown.
Assay [14] deals with FZD7 cysteine-rich domain (CRD), MYC-tagged and GPI-anchored on CHO cells (human, UniProt O75084 45-169). Put plainly: flow cytometry, CHO-CRD cells.
Description: as §1

B1: Fab-2931 (Fab, V domains shown)
VH: EVQLVESGGGLVQPGGSLRLSCAASGFNLSYSSMHWVRQAPGKGLEWVAYISPYSGSTYYADSVKGRFTISADTSKNTAYLQMNSLRAEDTAVYYCARGSYWYVGGGWWVSGHGGMDYWGQGTLVTVSS
VL: DIQMTQSPSSLSASVGDRVTITCRASQSVSSAVAWYQQKPGKAPKLLIYSASSLYSGVPSRFSGSRSGTDFTLTISSLQPEDFATYYCQQSSYSLITFGQGTKVEIK
notes: Fab; also called Fv-2931
For B1, the median fluorescence is 3.65 in assay [1]; 2.89 in assay [2]; 2.59 in assay [3]; 2.76 in assay [4]; 28.1 in assay [5]; 3.49 in assay [6]. For the same molecule, the binding result in assay [7], in assay [8], in [9], in [10] and in assay [11] was “no binding” each time.

B2: Fab-2900 (Fab, V domains shown)
VH: EVQLVESGGGLVQPGGSLRLSCAASGFNLSSYYIHWVRQAPGKGLEWVASISSSSSSTSYADSVKGRFTISADTSKNTAYLQMNSLRAEDTAVYYCARGALDYWGQGTLVTVSS
VL: DIQMTQSPSSLSASVGDRVTITCRASQSVSSAVAWYQQKPGKAPKLLIYSASSLYSGVPSRFSGSRSGTDFTLTISSLQPEDFATYYCQQWYSGSSLFTFGQGTKVEIK
notes: Fab; also called Fv-2900
For the molecule B2, the median fluorescence in [1] was 5.62; in assay [2], 3.37; in [3], 3.25; in assay [4], 3.01; in assay [5], 38.2; in assay [6], 4.26. Besides, the median fluorescence in assay [12] was 23.3. In addition, the binding result in assay [7], in assay [8], in [9], in [10] and in assay [11] was “no binding” throughout.

B3: Fab-2925 (Fab, V domains shown)
VH: EVQLVESGGGLVQPGGSLRLSCAASGFNLSYSSMHWVRQAPGKGLEWVASIYPSYGSTYYADSVKGRFTISADTSKNTAYLQMNSLRAEDTAVYYCARYGYFGLDYWGQGTLVTVSS
VL: DIQMTQSPSSLSASVGDRVTITCRASQSVSSAVAWYQQKPGKAPKLLIYSASSLYSGVPSRFSGSRSGTDFTLTISSLQPEDFATYYCQQAWVYASLFTFGQGTKVEIK
notes: Fab; also called Fv-2925
Turning to B3, the median fluorescence was found to be 4.53 in [1]; 3.05 in [2]; 4.53 in [3]; 3.31 in assay [4]; 37.5 in assay [5]; 3.92 in assay [6]. Also, the binding result in assay [7], in [8], in [9], in [10] and in [11] was “no binding” each time.

B4: Fab-2903 (Fab, V domains shown)
VH: EVQLVESGGGLVQPGGSLRLSCAASGFNLSYYYIHWVRQAPGKGLEWVASIYPYSSYTSYADSVKGRFTISADTSKNTAYLQMNSLRAEDTAVYYCARGAIDYWGQGTLVTVSS
V domain: DIQMTQSPSSLSASVGDRVTITCRASQSVSSAVAWYQQKPGKAPKLLIYSASSLYSGVPSRFSGSRSGTDFTLTISSLQPEDFATYYCQQWGGGSSLFTFG
notes: Fab; also called Fv-2903
For the molecule B4, the median fluorescence in assay [1] is 5.52; in assay [2] it was 3.52; in [3], 3.05; in assay [13], 8.66; in assay [4], 3.11; in [5], 34.9. The median fluorescence in assay [6] amounted to 4.18; in assay [14] it was 8.58; in [12], 13.7. The binding result in [7], in [8], in assay [9], in [10] and in assay [11] was “no binding” in each case.

B5: Fab-2932 (Fab, V domains shown)
VH: EVQLVESGGGLVQPGGSLRLSCAASGFNISYSYMHWVRQAPGKGLEWVASIYSSYSSTSYADSVKGRFTISADTSKNTAYLQMNSLRAEDTAVYYCARGALDYWGQGTLVTVSS
VL: DIQMTQSPSSLSASVGDRVTITCRASQSVSSAVAWYQQKPGKAPKLLIYSASSLYSGVPSRFSGSRSGTDFTLTISSLQPEDFATYYCQQWYGSFALITFGQGTKVEIK
notes: Fab; also called Fv-2932
For the molecule B5, the median fluorescence amounted to 4.26 in assay [1]; 3.11 in assay [2]; 3.82 in assay [3]; 16.6 in assay [13]; 3.62 in assay [4]; 29.4 in assay [5]. The median fluorescence in assay [6] came out at 3.85; in [14] it was 34.3; in [12], 28.9. The binding result in assay [7], in [8], in assay [9], in assay [10] and in assay [11] was “no binding” throughout.

B6: Fab-2905 (Fab, V domains shown)
VH: EVQLVESGGGLVQPGGSLRLSCAASGFNLSYYYMHWVRQAPGKGLEWVASIYSSYSYTSYADSVKGRFTISADTSKNTAYLQMNSLRAEDTAVYYCARSGYALDYWGQGTLVTVSS
VL: DIQMTQSPSSLSASVGDRVTITCRASQSVSSAVAWYQQKPGKAPKLLIYSASSLYSGVPSRFSGSRSGTDFTLTISSLQPEDFATYYCQQSSWYYGYPFTFGQGTKVEIK
notes: Fab; also called Fv-2905
For the molecule B6, the median fluorescence worked out at 4.57 in assay [1]; 3.22 in assay [2]; 3.31 in assay [3]; 3.25 in [4]; 24.8 in [5]; 4.1 in assay [6]. The binding result in assay [7], in [8], in [9], in assay [10] and in assay [11] was “no binding” in each case.

For the origin of these results see patent publication US20210253718A1 (MODMAB THERAPEUTICS, published 2021).
